According to US6406886:

What was measured:
Ran = assay: cell-based or functional assay
[1] = molecular target: human Ha-Ras (1st to 189th residues) (UniProt P01112)
[2] = molecular target: human Rap1A (Glu63) (1st to 184th residues) (UniProt P62834)
[3] = molecular target: human RhoA (1st to 193 residues) GST fusion protein (UniProt P61586)
[4] = molecular target: yeast Rsr1 (1st to 272nd residues) (UniProt P13856)
Chain of yeast Rsr1 (1st to 272nd residues) (P13856 whole entry): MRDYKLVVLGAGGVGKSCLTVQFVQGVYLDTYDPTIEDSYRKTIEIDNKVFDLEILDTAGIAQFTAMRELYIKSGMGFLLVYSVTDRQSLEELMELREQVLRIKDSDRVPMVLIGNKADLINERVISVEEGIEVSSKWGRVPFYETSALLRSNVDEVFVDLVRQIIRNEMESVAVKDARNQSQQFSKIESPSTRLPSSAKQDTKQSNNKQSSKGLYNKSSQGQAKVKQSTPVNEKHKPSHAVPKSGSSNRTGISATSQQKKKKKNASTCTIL

Chain of fusion protein of human GAP3 (75th to 663rd amino acid residues) and GST (chain, as listed by the source): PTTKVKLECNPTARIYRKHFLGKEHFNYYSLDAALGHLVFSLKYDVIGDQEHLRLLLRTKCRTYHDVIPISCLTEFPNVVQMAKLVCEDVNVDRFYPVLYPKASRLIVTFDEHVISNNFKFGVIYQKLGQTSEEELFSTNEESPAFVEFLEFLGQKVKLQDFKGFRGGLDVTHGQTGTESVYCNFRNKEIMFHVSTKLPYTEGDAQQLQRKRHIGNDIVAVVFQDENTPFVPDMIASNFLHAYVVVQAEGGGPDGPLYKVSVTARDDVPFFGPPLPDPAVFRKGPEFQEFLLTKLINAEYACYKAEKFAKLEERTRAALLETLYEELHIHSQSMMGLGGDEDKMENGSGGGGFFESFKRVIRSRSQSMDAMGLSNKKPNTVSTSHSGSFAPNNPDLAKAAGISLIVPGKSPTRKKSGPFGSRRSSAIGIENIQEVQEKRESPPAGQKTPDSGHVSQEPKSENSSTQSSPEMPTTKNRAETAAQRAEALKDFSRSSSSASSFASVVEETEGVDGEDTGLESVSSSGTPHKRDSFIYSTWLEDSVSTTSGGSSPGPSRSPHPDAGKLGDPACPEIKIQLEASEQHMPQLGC
Chain of human Rap1A (Glu63) (1st to 184th residues) (P62834 whole entry, looked up, the tested form may be a part): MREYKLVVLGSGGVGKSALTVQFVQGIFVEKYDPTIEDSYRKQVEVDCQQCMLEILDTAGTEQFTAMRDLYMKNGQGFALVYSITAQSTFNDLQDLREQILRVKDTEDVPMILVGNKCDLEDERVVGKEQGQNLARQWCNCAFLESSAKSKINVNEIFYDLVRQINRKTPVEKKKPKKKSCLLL
Chain of human RhoA (1st to 193 residues) GST fusion protein (P61586 whole entry, the tested form may be a part): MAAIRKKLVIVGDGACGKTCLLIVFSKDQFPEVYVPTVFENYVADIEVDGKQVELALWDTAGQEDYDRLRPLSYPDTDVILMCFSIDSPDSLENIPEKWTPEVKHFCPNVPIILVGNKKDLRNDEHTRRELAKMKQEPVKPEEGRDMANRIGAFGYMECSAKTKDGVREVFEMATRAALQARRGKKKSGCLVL
Chain of human Ha-Ras (1st to 189th residues) (P01112 whole entry, looked up): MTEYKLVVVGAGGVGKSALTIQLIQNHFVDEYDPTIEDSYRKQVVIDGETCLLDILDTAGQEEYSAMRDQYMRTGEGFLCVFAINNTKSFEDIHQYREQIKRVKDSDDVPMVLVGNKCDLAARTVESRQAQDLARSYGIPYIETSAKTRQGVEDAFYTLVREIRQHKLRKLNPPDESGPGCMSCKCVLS

Row | EC16 (µg/ml), activation of Ran GTPase (Ran) [µg/mL] | Substance | Stimulation (times) of GTPase activity [1] [times] | Stimulation (times) of GTPase activity [2] [times] | Stimulation (times) of GTPase activity [3] [times] | Stimulation (times) of GTPase activity [4] [times]
1 | 300 | NF1-GDR(Ras GAP) (enzyme) |  |  |  | 
2 |  | fusion protein of human GAP3 (75th to 663rd amino acid residues) and GST | 0 | 10 | 0 | 7
3 | 130 | fusion protein of human GAP3 (75th to 663rd amino acid residues) and GST (from UniProt P47736 75-663) (enzyme) |  |  |  | 
4 | 150 | p190C(Rho GAP) (enzyme) |  |  |  | 
